Measured values taken from patent US20070218502A1 (Scripps Research, published 2007).
Ends that are not written are not given here.

How the values were obtained:
[1] = target: T1, human high affinity IgE receptor (FcεRI) α-chain with the NOVA-2 peptide tag at the C-terminus, expressed in … (human, UniProt P12319 26-257); test: fluorescence imaging in live Cos-7 cells after microinjection
T1 construct: whole, on cells; Retained in the endoplasmic reticulum membrane of the cells; also called peptide-tagged FcεRI α-chain; NOVA2-tagged α-chain
T1 sequence: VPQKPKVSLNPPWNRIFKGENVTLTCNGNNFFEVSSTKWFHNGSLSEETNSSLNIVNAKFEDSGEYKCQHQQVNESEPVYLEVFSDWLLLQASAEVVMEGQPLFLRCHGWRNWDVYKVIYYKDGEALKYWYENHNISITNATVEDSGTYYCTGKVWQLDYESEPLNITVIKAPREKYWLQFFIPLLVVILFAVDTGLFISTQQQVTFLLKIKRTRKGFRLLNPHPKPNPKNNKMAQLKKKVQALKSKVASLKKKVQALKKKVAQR

[2] = target: T2, peptide tag (SEQ ID NO:16), unlabeled synthetic peptide (C-terminal amide); test: equilibrium fluorescence titration
T2 construct: Short peptide tag derived from the leucine zipper of the GCN4 transcription factor; also called protein tag peptide; unlabeled peptide
T2 peptide: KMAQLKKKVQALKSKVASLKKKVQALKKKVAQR

[3] = target: T2, peptide tag (SEQ ID NO:16), unlabeled …; test: equilibrium fluorescence anisotropy titration, 12.52 nM labeled peptide, 0.1x PBS, 25° C., 1:1 binding fit
[4] = target: T3, cdc42-GTPγS (recombinant 6His-tagged cdc42 loaded with GTPγS) (UniProt P60953 1-191, limits assumed); test: fluorescence of mero-CBD with saturating cdc42-GTPγS
T3 construct: not shown: 6His tag
T3 sequence (P60953 whole entry): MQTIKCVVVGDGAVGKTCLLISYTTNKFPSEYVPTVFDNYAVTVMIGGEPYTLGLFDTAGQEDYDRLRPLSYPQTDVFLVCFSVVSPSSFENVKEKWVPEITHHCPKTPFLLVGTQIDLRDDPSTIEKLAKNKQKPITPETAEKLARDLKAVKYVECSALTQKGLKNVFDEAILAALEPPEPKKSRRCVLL

[5] = target: T3, cdc42-GTPγS (recombinant 6His-tagged …); test: fluorescence of dye-labeled CBD in solution
[6] = target: T4, RhoA-GTPγS (recombinant 6His-tagged RhoA pre-equilibrated with GTPγS) (UniProt P61586 1-193, limits assumed); test: fluorescence of mero-CBD in solution
T4 construct: not shown: 6His tag
T4 sequence (P61586 whole entry): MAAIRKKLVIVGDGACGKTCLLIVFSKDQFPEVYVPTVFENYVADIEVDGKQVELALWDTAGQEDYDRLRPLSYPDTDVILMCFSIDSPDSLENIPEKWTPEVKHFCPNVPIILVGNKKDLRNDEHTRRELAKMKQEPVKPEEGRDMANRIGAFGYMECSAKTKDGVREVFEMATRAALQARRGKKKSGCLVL

B1: rhodamine-labeled peptide (SEQ ID NO:15, tetramethylrhodamine on Lys 21), as microinjected into cells (peptide)
peptide: CEMAQLEKEVQALESEVASLEKEVQALEKEVAQR-NH2
modifications: also: tetramethylrhodamine on Lys stated as position 21, which does not match a Lys in the given chain
notes: also called rhodamine peptide biosensor; rhodamine-peptide
binding result [1]: binds

B2: tetramethylrhodamine-labeled leucine zipper peptide (SEQ ID NO:15) with YGRKKRRNRRRP (SEQ ID NO:17) appended to the N-terminus, as used in the in vitro … (peptide)
peptide: YGRKKRRNRRRPCEMAQLEKEVQALESEVASLEKEVQALEKEVAQR-NH2
modifications: not fully specified
notes: Peptide derived from the GCN4 leucine zipper; also called labeled peptide; TMRPep
Kd [2]: 5 nM | Kd [3]: 5.4 nM

B3: mero-CBD-F271C conjugate (Cdc42-binding fragment of human WASP, amino acids 201 to 321, F271C, labeled with merocyanine dye) (other)
chain: DIQNPDITSSRYRGLPAPGPSPADKKRSGKKKISKADIGAPSGFKHVSHVGWDPQNGFDVNNLDPDLRSLCSRAGISEAQLTDAETSKLIYDFIEDQGGLEAVRQEMRRQEPLPPPPPPSR
modifications: merocyanine dye of FIG. 11 on Cys 271 (WASP numbering)
notes: that entry has 120 residues and ends at WASP 320; also called CBD-A4C; CBD biosensor; not shown: C-terminal 6His tag from pET23a
fold increase in excitation and emission maxima [4]: ~3.5 fold | fold fluorescence change on binding [5]: ~3.5 fold | binding result [6]: no binding
